Values quoted from earlier work, collected in paper PMC12513479.

Assays:
[1] = molecular target: IFNAR2 (Homo sapiens) (UniProt P48551)
[2] = molecular target: IFNAR1 (Homo sapiens) (UniProt P17181)
Sequence of UniProt P17181 (P17181 28-436): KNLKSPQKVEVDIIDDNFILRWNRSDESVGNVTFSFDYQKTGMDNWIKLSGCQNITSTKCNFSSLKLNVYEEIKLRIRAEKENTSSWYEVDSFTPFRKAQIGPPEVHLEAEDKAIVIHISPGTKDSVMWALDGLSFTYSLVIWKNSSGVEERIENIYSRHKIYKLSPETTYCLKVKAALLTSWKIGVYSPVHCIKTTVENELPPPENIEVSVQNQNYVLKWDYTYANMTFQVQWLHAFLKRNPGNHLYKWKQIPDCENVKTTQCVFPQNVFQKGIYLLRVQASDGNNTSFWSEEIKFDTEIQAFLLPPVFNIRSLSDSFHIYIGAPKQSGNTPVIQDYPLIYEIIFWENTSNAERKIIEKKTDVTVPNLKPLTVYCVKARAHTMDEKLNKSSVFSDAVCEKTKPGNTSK

Sequence of UniProt P48551 (P48551 27-243): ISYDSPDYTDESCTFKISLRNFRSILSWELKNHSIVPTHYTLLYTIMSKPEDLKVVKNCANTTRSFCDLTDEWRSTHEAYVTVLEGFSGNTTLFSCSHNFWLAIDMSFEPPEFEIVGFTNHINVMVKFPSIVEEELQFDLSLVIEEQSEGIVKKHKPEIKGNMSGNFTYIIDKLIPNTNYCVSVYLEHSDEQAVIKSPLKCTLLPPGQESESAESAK

- Kd [1]: 0.1 nM
- Kd [2]: 100 nM
Substance: IFN-β (from UniProt P01574)
